Assay results taken from US20160046957A1.

Target: human coagulation Factor X (human) (UniProt P00742)
Test: cell-based or functional assay

Sequence of UniProt P00742 (P00742 41-488): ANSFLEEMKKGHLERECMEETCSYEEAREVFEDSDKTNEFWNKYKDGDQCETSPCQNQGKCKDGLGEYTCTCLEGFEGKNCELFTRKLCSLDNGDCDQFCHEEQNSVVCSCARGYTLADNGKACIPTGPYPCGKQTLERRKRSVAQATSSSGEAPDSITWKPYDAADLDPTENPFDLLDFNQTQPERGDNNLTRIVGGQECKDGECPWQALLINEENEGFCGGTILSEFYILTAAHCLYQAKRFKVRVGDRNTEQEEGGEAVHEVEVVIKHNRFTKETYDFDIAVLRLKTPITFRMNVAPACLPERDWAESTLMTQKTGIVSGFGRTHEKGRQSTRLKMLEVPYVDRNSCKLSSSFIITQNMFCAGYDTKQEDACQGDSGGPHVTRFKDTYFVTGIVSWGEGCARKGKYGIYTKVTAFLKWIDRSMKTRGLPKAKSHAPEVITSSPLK

estimated furin concentration in the cell culture medium resulting in equal or higher 90% fully processed FX of total FX (Emax model on Western blot densitometry and furin activity assay): > 57 U/mL
Substance: human furin (from UniProt P09958 108-794) (enzyme)
